From paper PMC4067145

What was measured:
[1] = target: T1, U2B″ (human, UniProt P08579 1-225); experiment: fluorescence titration
[2] = target: T2, U1A (human, UniProt P09012 1-282); experiment: fluorescence titration
[3] = target: T3, U1A;U2A′ LRR domain (human;human, UniProt P09012;P09661 1-282;1-180, |); experiment: fluorescence titration
[4] = target: U2B″;U2A′ LRR domain (human;human, UniProt P08579;P09661 1-225;1-180, |); experiment: fluorescence titration
[5] = target: T3, U1A;U2A′ LRR domain; experiment: ITC
[6] = target: T2, U1A; experiment: ITC
[7] = target: T1, U2B″; experiment: ITC
[8] = target: T3, U1A;U2A′ LRR domain; experiment: fluorescence titration; remark: listed apart in the source
[9] = target: T1, U2B″; experiment: ITC; remark: listed apart in the source
[10] = target: T2, U1A; experiment: ITC; remark: listed apart in the source

T2 sequence (P09012 whole entry, the tested form may be a part): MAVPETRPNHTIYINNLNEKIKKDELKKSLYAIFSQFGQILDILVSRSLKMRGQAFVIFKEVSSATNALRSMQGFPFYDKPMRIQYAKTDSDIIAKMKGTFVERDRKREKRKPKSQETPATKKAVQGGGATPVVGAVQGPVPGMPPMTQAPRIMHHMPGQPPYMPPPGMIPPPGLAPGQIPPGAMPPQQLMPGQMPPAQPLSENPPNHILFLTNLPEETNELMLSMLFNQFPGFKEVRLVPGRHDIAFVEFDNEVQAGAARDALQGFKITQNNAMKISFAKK
T3 sequence (P09012 whole entry, chain 1 of 2, the tested form may be a part): as the sequence (P09012 whole entry, the tested form may be a part) above
T3 sequence (P09661 1-180, chain 2 of 2): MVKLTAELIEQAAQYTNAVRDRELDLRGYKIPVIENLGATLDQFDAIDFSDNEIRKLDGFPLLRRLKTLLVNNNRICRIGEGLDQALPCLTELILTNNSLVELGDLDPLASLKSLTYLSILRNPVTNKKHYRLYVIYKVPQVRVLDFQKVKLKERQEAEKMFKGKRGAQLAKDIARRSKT
T1 sequence (P08579 whole entry): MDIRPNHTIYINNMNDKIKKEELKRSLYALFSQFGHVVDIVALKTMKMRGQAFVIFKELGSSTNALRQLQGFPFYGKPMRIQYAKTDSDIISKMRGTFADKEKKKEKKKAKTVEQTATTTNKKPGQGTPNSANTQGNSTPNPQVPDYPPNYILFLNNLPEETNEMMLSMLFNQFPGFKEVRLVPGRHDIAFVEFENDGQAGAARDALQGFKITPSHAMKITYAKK
Sequence of U2B″;U2A′ LRR domain (P08579 whole entry, chain 1 of 2, the tested form may be a part): as the sequence (P08579 whole entry) above
Sequence of U2B″;U2A′ LRR domain (P09661 1-180, chain 2 of 2): as the sequence (P09661 1-180, chain 2 of 2) above

GGGCCCGGCAUUGCACCUCGCCGGGUCC (structured_RNA) [FAM-SLII (U1 snRNA stemloop II)]
Kd [1]: 15 nM
Kd [2]: 0.33 nM
binding signal [3]: 7.3 ± 1.3 alpha (linkage parameter, fold)
binding signal [4]: 15.8 ± 1.6 alpha (linkage parameter, fold)

GGGCACAUUGCACCUCGUGUCCAGACUUCGGUC (structured_RNA) [SLII ITC construct]
binding signal [5]: 1.4 ± 7.9 alpha (linkage parameter, fold)
Kd [6]: < 7 nM
Kd [7]: 92 nM

GGGCCCGGUAUUGCAGUACCGCCGGGUCC (structured_RNA) [FAM-SLIV (U2 snRNA stemloop IV)]
Kd [1]: 17 nM
Kd [2]: 58 nM
binding signal [8]: 89 ± 11 alpha (linkage parameter, fold)
binding signal [4]: 139 ± 49 alpha (linkage parameter, fold)

GGAGUUUUCCAGGACGUAUUGCAGUACCUCGUCCUGG (structured_RNA) [SLIV ITC construct]
binding signal [5]: 34 ± 17 alpha (linkage parameter, fold)
Kd [9]: 2.3 nM
Kd [10]: 100 nM
